# Assay results reported in US20130034559A1.
# What was measured:
# [1] = target: mouse B7-H1 on J558 cells (mouse) (UniProt Q9EP73); experiment: FACS, 5 µg/ml isotype control, J558 cells expressing mouse B7-H1
# [2] = target: cynomolgus monkey B7-H1 expressed on cells (cynomolgus monkey) (UniProt G7PSE7); experiment: FACS, 1 µg/ml isotype control, anti-CD3-activated cynomolgus monkey T cells
# [3] = target: human B7-H1 expressed on cells (human) (UniProt Q9NZQ7); experiment: FACS, 5 µg/ml isotype control, 293T cells transfected with human B7-H1
# [4] = target: human B7-H1 expressed on cells (human) (UniProt Q9NZQ7); experiment: FACS, 1 µg/ml isotype control, anti-CD3-activated human T cells
# [5] = target: human B7-DC on 293T cells (human) (UniProt Q9BQ51); experiment: FACS, 5 µg/ml isotype control, 293T cells transfected with human B7-DC
# Chain of human B7-DC on 293T cells (human) (Q9BQ51 20-273): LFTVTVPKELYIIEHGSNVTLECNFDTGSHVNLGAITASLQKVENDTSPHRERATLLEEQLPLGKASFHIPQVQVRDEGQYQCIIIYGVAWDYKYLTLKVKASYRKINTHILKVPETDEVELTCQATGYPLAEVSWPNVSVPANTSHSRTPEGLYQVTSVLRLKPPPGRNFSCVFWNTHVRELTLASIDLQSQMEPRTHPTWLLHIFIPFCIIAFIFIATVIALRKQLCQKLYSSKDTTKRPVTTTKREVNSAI
# Chain of human B7-H1 expressed on cells (human) (Q9NZQ7 19-290): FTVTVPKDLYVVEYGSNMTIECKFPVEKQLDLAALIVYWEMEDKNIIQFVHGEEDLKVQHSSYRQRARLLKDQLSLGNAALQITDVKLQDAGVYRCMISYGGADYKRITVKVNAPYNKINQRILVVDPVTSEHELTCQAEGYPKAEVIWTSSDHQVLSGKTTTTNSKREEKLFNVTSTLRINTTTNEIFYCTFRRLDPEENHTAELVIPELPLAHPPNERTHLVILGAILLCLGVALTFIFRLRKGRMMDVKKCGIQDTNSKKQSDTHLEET
# Chain of mouse B7-H1 on J558 cells (mouse) (Q9EP73 19-290): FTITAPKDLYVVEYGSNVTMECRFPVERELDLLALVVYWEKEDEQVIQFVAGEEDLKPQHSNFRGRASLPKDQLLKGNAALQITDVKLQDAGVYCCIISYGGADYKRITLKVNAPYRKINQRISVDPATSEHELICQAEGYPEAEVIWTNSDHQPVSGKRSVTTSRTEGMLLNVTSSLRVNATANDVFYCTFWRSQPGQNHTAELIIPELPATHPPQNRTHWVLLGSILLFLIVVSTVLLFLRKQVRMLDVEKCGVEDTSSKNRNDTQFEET
# Chain of cynomolgus monkey B7-H1 expressed on cells (cynomolgus monkey) (G7PSE7 entry or part of it): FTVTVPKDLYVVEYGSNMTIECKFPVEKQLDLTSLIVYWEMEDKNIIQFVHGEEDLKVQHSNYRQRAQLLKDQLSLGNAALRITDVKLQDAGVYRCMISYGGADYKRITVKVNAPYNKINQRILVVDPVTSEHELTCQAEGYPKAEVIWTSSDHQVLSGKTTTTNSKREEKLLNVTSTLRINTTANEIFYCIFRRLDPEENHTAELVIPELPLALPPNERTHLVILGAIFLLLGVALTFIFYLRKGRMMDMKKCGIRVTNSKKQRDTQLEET
geo mean [1],geo mean [2],geo mean [3],geo mean [4],geo mean [5],Substance
3.2,17.6,10.7,10,8.8,irrelevant human IgG4 antibody
3.1,–,7.6,10,9.5,irrelevant human IgG2 antibody
